Earlier results in article PMC5000552.

Target: BCL6 (Homo sapiens) (UniProt P41182)

Chain of BCOR (Q6W2J9 whole entry): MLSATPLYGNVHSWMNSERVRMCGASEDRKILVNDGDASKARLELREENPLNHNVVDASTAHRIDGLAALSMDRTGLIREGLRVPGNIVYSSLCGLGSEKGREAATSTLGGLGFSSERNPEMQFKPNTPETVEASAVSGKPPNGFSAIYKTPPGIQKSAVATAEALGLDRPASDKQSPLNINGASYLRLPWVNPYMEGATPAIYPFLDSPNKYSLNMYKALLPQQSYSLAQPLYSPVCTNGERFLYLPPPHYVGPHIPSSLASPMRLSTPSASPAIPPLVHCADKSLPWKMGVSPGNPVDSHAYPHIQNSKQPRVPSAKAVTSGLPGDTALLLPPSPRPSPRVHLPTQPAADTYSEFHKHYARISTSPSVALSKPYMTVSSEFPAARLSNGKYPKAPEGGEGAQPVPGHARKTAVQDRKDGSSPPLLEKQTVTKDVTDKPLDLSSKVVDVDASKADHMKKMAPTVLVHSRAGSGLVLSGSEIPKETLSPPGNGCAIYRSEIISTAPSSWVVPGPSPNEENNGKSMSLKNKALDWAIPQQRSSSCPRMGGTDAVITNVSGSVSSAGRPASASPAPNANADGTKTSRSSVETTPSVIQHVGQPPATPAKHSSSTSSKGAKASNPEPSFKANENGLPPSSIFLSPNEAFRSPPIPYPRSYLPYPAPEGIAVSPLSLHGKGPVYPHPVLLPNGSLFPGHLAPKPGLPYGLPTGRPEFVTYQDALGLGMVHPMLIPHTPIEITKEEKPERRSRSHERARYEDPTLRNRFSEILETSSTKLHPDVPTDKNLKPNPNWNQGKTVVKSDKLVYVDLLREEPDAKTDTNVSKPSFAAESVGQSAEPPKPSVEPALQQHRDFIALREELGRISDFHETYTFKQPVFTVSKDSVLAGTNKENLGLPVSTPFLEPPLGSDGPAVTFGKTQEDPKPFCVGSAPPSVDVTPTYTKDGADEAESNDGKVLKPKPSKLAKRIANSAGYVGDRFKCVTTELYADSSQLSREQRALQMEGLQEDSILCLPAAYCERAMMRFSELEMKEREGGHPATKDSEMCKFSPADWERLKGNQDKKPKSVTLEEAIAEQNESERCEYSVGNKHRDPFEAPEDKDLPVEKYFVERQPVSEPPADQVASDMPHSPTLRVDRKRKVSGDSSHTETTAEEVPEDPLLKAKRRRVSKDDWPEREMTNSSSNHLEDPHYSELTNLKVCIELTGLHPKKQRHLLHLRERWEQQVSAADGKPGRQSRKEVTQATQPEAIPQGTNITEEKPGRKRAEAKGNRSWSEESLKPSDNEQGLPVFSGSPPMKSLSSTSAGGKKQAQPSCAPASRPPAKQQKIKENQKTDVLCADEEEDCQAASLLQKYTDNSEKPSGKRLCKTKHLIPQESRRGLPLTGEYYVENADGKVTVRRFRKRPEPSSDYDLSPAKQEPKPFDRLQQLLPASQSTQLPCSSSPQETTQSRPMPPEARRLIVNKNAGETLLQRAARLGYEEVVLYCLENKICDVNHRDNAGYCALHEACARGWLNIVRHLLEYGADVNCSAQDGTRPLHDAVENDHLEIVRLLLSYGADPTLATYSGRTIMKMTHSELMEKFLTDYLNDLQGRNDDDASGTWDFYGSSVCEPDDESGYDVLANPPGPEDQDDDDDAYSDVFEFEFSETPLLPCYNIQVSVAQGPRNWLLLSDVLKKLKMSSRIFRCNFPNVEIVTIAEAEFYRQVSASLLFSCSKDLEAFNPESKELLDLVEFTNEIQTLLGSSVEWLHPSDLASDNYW

BCOR (from UniProt Q6W2J9)
Kd: 20 µM
